# The nanobody polyreactivity screen of Harvey et al. (2022)
# Assay: yeast display, Sf9 membrane polyspecificity reagent, FACS + sequencing; frameworks hold sequencing errors
# Outline: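 A nanobody's polyreactivity label depends on the gate it was sorted from. Yeast display cells were stained with 10% biotinylated, detergent-solubilized Sf9 membrane reagent for 1 hour at 4 °C, enriched on streptavidin microbeads and sorted by FACS. The low and high (top ~1%) gates were set on anti-HA fluorescence for expression and streptavidin fluorescence for reagent binding.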
row,Sequence,polyreactivity (PSR sort gate)
1,QVQLVESCGGLVQAGGSLRLSCAASGFTFRNYVMGWYRQAPGKERELVAAISSTGGSTYYADSVKGRFTISRDNAKNTVYLQMNSLKPEDTAVYYCAARYVVQWPRYGFDYWGQGTQVTVSS,high polyreactivity
2,QVQLVESCGGLVQAGGSLRLSCAASGLIFRPNAMGWYRQAPAKERELVAAISGGGGSTYYADSVKGRFTISRDNAKNTVYLQMKSLKPEDTAVYYCNARKLVNRYPVIGVETYDYWGQGTQVTVSS,low polyreactivity
3,QVQLVESCGGLVQAGGSLRLSCAASGLTFYRYAMGWYRQAPGKERELVAAISSADRTYYADSVKGRFTISRDNAKNTVYLQMNSLKPEDTAVYYCAARANYFGWTKSYYYWGQGTQVNVSS,high polyreactivity
4,QVQLVESCGGLVQAGGSLRLSCAASGLTYRYYAMGWYRKAPGKERELVAAITSSGTSTYYADSVKGRFTISRDNAKNTVSLQMNSLKAEDTAVSYCAVRQSQKYGLFYYGGQGTQVTVSS,high polyreactivity
5,QVQLVESCGGLVQAGGSLRLSCAASGRNIWDYGMVWYRQAPGKERELVAVITWGGGSTYYADSVKGRFTISRDNAMNTVYLQMNSLKPEDSAVYYCAKEYHYYYWGQGTQVTVSS,low polyreactivity
6,QVQLVESCGGLVQAGGSLRLSCAASGRTFRYYAMGWYRQAPWKERELVAAIRRGGSTTYADSVKGRFTISRDNAKNTVYLQMNSLKPEDTAVYYCAARYPGTRGDGYWGQGTQVTVSS,high polyreactivity
7,QVQLVESCGGLVQAGGSLRLSCAASGSIFAYYAMGWYRQAPGKERDLVAAISRGGGSTYYADSVTGRFTLSRDNAKNTVYLQMNSLKQEDTAVYYCDAYYAKGRAYDYDYWGQGTQVTVSS,high polyreactivity
8,QVQLVESCGGLVQAGGSLRLSCAASGSIFGWYAMGWYRQAPGKESELVAAISTSTGSTYYADSVKGRFTISRDNAKNTVYLQMNSLKPEDTAVYYCAVVVAGVFLWGVERYDYWGQGTQVTVSS,low polyreactivity
9,QVQLVESCGGLVQAGGSLRLSCAASGSTFRYNAMGWYRQAPGKERELVAAISWSGGSTYYADSVKGRFTISRDNAKNTVYLQMNSLKPEDTAVYYCAKVYFWGALSPDKFDEDYWGQGTQVTVSS,low polyreactivity
10,QVQLVESCGGLVQAGGSLRLSCAASGSTFYLNAMGWYRQAPGKERELVAAIDYRGGSTYYADSVKGRFTISRDYAKNTVYLQMNSLKPEDTAVYYCAKDRPGFLVGWGGGYDYWGQGTQVTVSS,low polyreactivity
11,QVQLVESCGGLVQAGGSLRLSCADSGLTMYGYARGWYRHAPGNERELVATLTRRGGSTYYADSVKGRFTISRDNAKNTVYLQMNSLKPEDPAVYYCAATYQHQNPQGVFSGGYYYWGQGTQVTVAS,high polyreactivity
12,QVQLVESCGGLVQAGGSLRLSCAPSGSTIPPNAMGWNRQAPRQERELVADSSDSSTSYADSVKGRFSISRDNAKNTVYLQMKSQKPEDTAVYYCAAADAGLRSKSYGQQYDYWGQGTQVTVSS,low polyreactivity
13,QVQLVESCGGLVQAGGSLRLTCAASGSTFNWYTMGWYRQAPGKDRELVAAMSRGTGSTYYADSVKGRFTMSRDNANNRVYVQMNSLKPEDTAVYSCAKQGYRYSSFLYDYWGQGTQVTVSS,low polyreactivity
14,QVQLVESCGGLVQAGGTLRLRCAASGFTFYPYSMGWYRQAPWKERELVAAITRGGITYYADSVKGRFTISRDYAKNTVYLQMKSLKPEDTAVYYCNAGWYVSYRWYRSDYWGQGTQVTVSS,high polyreactivity
15,QVQLVESCGGLVQAGSSLRLSCAASVITFYGYAMGWYRQAPGKERELVADITRGGSTNYADSVKGRFTISRDNAKNTVFLQMNSLKPEDSAVYYCAKSTRRFSWYYSTVGYNYWAQGTQVTVSS,high polyreactivity
16,QVQLVESCGGLVQEGGSLRLSCAASGRIFVVSAMGRYRQAPGKERELVAAISKRGGSTYYADSVKGRFTISRDNAKKTVYLQMNSLKPEDTAVYYCAKSRLVRGRSSYDYWGHGTQVTVSS,high polyreactivity
17,QVQLVESCVGLVQAGGSLRLSCAASRSTFDSYAMGWYRQAPGNEREMVASITSRGGRTYYADSVKGRFSISRDNAMNTVYLEMNSLKPEDTAVYYCNAYRRKYYYYQRHGFWGQGTQVTVSS,high polyreactivity
